These results are taken from patent US20030190342A1.

Assay [1] concerns the target human collagen type III (human) (UniProt P02461). The assay can be described thus: microtiter plate competition: inhibition of binding of vWF in diluted porcine plasma to coated human collagen type III.
In assay [2] the target is collagen (platelet aggregation agonist, 0.5 µg ml^-1). Kind of assay: cell-based or functional assay.
Assay [3] addresses calf skin collagen (calf). The assay can be described thus: cell-based or functional assay.
In assay [4] the target is human collagen type I (human) (UniProt P02452). The assay can be described thus: microtiter plate competition: inhibition of binding of vWF in diluted murine plasma to coated human collagen type I.
Assay [5] shares this target. The assay can be described thus: microtiter plate competition: inhibition of purified human vWF binding to coated human collagen I; competitor purified human vWF, detected with anti-vWF-HRP.
The target of assay [6] is human collagen type III (human) (UniProt P02461). The assay can be described thus: microtiter plate competition: inhibition of purified human vWF binding to coated human collagen III; competitor purified human vWF, detected with anti-vWF-HRP.
The target is the same in assay [7]. Kind of assay: microtiter plate competition: inhibition of binding of vWF in diluted murine plasma to coated human collagen type III.
For assay [8], the target named is calf skin collagen (calf). The assay can be described thus: microtiter plate competition: inhibition of binding of vWF in diluted human plasma to coated calf skin collagen.
In assay [9] the target is human collagen type III (human) (UniProt P02461). Kind of assay: microtiter plate competition: inhibition of binding of vWF in diluted human plasma to coated human collagen type III.
Assay [10] concerns the target calf skin collagen (calf). Kind of assay: microtiter plate competition: inhibition of purified human vWF binding to coated calf skin collagen; competitor purified human vWF, detected with anti-vWF-HRP.
Assay [11] addresses human collagen type III (human) (UniProt P02461). Kind of assay: SPR (BIAcore 3000), immobilised human collagen type III, Scatchard analysis of plateau RU; high affinity site.
In assay [12] the target is calf skin collagen (calf). The assay can be described thus: microtiter plate competition: inhibition of binding of vWF in diluted murine plasma to coated calf skin collagen.
For assay [13], the target named is calf skin collagen (calf). The assay can be described thus: microtiter plate competition: inhibition of binding of vWF in diluted hamster plasma to coated calf skin collagen.
Assay [14] concerns the target calf skin collagen (calf). The assay can be described thus: microtiter plate competition: inhibition of binding of vWF in diluted porcine plasma to coated calf skin collagen.
The target in assay [15] is human collagen type I (human) (UniProt P02452). The assay can be described thus: microtiter plate competition: inhibition of binding of vWF in diluted porcine plasma to coated human collagen type I.
For assay [16], the target named is human collagen type III (human) (UniProt P02461). Kind of assay: SPR (BIAcore 3000), immobilised human collagen type III, Scatchard analysis of plateau RU; low affinity site.
Assay [17] addresses human collagen type I (human) (UniProt P02452). The assay can be described thus: microtiter plate competition: inhibition of binding of vWF in diluted hamster plasma to coated human collagen type I.
Assay [18] has the same target. The assay can be described thus: microtiter plate competition: inhibition of binding of vWF in diluted human plasma to coated human collagen type I.

Sequence of UniProt P02461 (P02461 154-1221): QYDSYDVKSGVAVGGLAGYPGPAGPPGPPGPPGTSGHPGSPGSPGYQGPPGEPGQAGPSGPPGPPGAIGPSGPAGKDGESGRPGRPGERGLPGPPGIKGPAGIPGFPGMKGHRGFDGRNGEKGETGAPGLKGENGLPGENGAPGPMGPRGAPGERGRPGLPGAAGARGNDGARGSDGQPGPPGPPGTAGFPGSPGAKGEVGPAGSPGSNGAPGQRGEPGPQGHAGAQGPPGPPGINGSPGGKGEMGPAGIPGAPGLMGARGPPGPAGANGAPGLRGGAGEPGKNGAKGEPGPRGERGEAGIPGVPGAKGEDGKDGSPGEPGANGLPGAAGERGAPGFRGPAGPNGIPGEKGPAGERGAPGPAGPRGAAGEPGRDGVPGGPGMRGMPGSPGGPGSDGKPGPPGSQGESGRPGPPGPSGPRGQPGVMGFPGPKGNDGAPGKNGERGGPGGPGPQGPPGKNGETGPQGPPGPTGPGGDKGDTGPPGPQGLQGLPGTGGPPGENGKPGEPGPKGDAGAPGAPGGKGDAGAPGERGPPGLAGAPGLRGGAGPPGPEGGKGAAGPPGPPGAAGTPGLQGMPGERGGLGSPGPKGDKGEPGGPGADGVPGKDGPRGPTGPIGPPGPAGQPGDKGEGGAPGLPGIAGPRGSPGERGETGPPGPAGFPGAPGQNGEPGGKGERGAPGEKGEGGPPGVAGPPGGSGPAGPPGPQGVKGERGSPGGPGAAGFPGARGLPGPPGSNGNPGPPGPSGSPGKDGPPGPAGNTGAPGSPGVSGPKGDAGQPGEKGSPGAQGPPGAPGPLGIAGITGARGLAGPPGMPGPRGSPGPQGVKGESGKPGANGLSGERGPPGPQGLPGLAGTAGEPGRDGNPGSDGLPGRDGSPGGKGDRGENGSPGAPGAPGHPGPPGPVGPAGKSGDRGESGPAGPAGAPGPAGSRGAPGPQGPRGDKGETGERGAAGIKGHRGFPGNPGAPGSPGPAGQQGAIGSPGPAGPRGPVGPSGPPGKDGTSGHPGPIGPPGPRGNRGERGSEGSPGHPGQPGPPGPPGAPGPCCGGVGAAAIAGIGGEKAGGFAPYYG
Sequence of calf skin collagen (calf) (P02453 162-1217, chain 1 of 2): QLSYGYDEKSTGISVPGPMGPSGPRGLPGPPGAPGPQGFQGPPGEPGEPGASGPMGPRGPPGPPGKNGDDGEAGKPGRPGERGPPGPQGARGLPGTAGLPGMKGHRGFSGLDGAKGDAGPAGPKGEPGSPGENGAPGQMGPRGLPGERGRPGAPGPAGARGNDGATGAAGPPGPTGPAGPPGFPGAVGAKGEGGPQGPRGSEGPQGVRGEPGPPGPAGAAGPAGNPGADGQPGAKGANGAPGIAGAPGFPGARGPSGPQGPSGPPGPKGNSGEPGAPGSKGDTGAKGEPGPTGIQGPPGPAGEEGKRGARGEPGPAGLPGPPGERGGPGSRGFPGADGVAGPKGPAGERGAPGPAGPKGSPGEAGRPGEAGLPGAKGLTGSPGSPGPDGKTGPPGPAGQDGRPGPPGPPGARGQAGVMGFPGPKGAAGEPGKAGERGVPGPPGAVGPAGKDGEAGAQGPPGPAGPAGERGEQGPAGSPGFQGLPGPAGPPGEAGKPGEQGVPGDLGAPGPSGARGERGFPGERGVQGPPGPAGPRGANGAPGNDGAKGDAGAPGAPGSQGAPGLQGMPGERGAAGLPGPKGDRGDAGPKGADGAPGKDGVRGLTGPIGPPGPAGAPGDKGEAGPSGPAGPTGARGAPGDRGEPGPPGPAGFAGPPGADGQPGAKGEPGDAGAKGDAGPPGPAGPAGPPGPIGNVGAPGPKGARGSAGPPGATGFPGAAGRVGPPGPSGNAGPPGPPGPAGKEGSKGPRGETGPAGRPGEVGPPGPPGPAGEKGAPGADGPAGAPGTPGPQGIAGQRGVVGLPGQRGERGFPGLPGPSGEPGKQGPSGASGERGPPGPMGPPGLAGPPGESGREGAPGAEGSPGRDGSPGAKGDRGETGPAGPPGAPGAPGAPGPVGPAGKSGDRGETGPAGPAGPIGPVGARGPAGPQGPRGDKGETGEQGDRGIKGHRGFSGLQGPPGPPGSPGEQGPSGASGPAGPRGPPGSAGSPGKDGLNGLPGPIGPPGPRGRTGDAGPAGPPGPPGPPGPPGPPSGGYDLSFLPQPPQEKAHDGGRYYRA
Sequence of calf skin collagen (calf) (P02465 80-1117, chain 2 of 2, further chain): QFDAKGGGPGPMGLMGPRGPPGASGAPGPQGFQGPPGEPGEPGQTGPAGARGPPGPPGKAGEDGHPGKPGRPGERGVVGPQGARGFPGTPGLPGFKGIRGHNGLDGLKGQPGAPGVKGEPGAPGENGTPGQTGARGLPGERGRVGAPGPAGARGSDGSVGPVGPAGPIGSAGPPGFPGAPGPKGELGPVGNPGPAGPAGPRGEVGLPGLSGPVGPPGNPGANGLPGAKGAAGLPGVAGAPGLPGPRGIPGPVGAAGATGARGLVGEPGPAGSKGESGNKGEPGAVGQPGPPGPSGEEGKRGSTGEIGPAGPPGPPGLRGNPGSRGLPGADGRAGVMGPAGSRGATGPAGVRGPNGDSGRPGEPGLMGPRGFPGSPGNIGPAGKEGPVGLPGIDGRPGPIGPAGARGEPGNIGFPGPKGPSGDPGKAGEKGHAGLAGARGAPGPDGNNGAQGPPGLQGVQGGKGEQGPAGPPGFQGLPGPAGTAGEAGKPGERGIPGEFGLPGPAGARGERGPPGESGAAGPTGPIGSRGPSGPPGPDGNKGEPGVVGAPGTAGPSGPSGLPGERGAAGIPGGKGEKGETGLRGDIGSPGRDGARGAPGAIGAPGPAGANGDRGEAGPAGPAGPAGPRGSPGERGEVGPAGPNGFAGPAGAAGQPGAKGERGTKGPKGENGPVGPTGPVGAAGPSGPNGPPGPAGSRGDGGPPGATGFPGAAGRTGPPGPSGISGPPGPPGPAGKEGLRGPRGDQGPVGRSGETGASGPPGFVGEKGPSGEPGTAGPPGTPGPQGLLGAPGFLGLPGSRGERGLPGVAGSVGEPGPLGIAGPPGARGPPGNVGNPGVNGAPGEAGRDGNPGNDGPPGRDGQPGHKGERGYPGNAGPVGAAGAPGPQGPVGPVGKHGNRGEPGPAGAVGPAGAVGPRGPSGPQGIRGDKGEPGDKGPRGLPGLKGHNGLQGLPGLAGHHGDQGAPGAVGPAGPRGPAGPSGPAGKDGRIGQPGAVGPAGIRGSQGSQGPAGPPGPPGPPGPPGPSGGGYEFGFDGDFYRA

Saratin: the IC50 in assay [1] amounted to 0.5 µg/mL; in assay [4] it was 0.1 µg/mL; in [5], 0.23 µg/mL; in assay [6], 0.81 µg/mL; in assay [7], 0.6 µg/mL; in assay [8] it was 0.3 µg/mL. Besides, the half-maximal inhibitory concentration (IC50) in assay [9] came out at 0.9 µg/mL; in [10] it was 0.44 µg/mL; in assay [12], 0.3 µg/mL; in assay [13] it was 7 µg/mL; in assay [14] it was 0.5 µg/mL; in assay [15] it was 0.2 µg/mL. For the same substance, the IC50 in assay [17] is 0.4 µg/mL; in assay [18], 0.2 µg/mL. Further, the Aggregation (%) of platelet-rich plasma induced by collagen at 10 µg ml^-1 saratin in assay [2] stood at 67%. Further, the Aggregation (%) of platelet-rich plasma induced by collagen at 20 µg ml^-1 saratin in [2] amounted to 63%. In assay [2], this substance displayed an Aggregation (%) of platelet-rich plasma induced by collagen at 40 µg ml^-1 saratin of 64%. The substance further came in with an Aggregation (%) of platelet-rich plasma induced by collagen at 200 µg ml^-1 saratin in assay [2] of 0%. In [3], this substance registered an IC50 of inhibition of platelet adhesion to collagen-coated coverslips, flow chamber, shear rate 1300 s^-1 of 5.2 µg/mL. In assay [3], this substance registered an IC50 of inhibition of platelet adhesion to collagen-coated coverslips, flow chamber, shear rate 2700 s^-1 of 0.96 µg/mL. The inhibition of platelet adhesion to collagen-coated coverslips, flow chamber, shear rate 300 s^-1 in [3] was above 10 µg/mL. Further, the Kd in assay [11] came out at 50 nM; in [16] it was 2000 nM.
